In paper PMC9600179 one finds binding data, which are given here for three sequences.

For the data set, the target named is T1, AlgR (Pseudomonas aeruginosa PAO1) (UniProt P26275).
T1 sequence: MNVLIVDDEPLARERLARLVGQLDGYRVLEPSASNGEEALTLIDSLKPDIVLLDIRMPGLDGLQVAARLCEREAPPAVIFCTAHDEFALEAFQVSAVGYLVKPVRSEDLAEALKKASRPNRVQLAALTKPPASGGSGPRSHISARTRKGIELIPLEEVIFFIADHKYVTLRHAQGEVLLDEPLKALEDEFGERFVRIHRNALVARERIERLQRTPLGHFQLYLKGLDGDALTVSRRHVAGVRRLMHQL
In words: EMSA. Particulars: EMSA: 10 mM Tris-HCl pH 7.4, 50 mM KCl, 5 mM MgCl2, 10% glycerol, 30 min, temperature not stated; 1 ug DIDC (poly dI-dC) with FITC probes in some assays …. A general note: In EMSA bound probe runs differently from free probe, usually more slowly.

Turning to “CGGGTCTTCGTAGGCGTAGCGGGTGCTGCCGGCCGGGCCGCGCACCGTCGTCGCATTGCCCCGTTCGTCGCGCTCGAAGGTCCAGCGGCGCTGCATCGCGTCCTCCAGCTCGACCAGCAGCCCGGTCTCTTCGTCGACGCGCTTGCGATAGCGCGCCTTGCCCGGCGACTCCTCCTCGAGC (double strand) [tse5 CDS fragment]”, the binding result is reported as “binds”.
The same measure for “CTGGCGATGGAAGGCACTCCAATCGAGGTCCGCAGGGCCGACCAGCGCGTCCAGCGAGAAATCGTCGAGCAAAGGGCGTCCGGCGGCCGCACGCAGGGTCAACGGCGCCAAAGGACCGCTCAGCGACGGTGCATCGGCTTCACGCACCACCAGGCTGGCCTGGCAGTCGGCAGCGATATCGGCCAGGGCCTGCTCGCGGGACTT (double strand) [pqsA CDS fragment]”: “binds”; for “GTACCTCGTCCGGCTCGGCGTCGGCGGTATAGCCGAGGATCAGGATCGGCGCGCGTCGCTCGCACCGTTCCTGGATGCGTATCCTGCGTGCCAGCTGATAGCCGTTCAGGCGCGGCATGTTGCAGTCGCTGATCAGCACCTCGAAGCGCTCGTCGGCCCAGAGCTCCAGCGCCA (double strand) [rocsS2 CDS fragment]”: “binds”.
